Target: T1, recombinant GST-Gαi3 (Rattus norvegicus, UniProt P08753)
T1 construct: A fusion protein was constructed consisting of full-length Gαi3 and gluthatione S-transferase (GST); made in house; host or cells: Escherichia coli BL21
Assay: SPOT peptide dot blot overlay with recombinant GST-Gαi3
Format: binding
Conditions: spotted 25 mers overlaid with GST-Gαi3 10 μg/ml
Description: FIG. 4 Dot blot analysis of conserved amino acids (core element of SEQ ID No. 1, 2, extended sequences SEQ ID No. 4 and 5) in the Reggai sequence. Spotted peptides containing the Reggai sequence (25 mers) of RIIβ (Reg) (SEQ ID No. 7), its mutant functional variant (SEQ ID No. 8) and non-functional peptides not containing the Reggai core element of SEQ ID No. 1 variant (SEQ ID No. 9 to 15) (exchanged amino acids are underlined) were overlaid with recombinant GST-Gαi3. The box indicates the Reggai sequence. Densitometric analysis of the average of two independent dot blot experiments is shown as bar graph. […] SEQ ID No. 9 to 15 in FIG. 4 (2nd to 7th and 9th sequence) are non-inventive comparative peptides.
Overlapping peptides either of the wild type PKA regulatory subunit RIIβ (accession number: NP_002727) or peptides containing substitutions of conserved amino acids in the Reggai sequence were SPOT-synthesized (Synthetic peptide arrays on membrane supports) on distinct coordinates of a cellulose membrane (shown in FIG. 1c; starting from the N-terminus of RegIIβ with amino acid 1-25 [coordinate A1], amino acid 6-30 [coordinate A2], etc.). […] Interactions were detected with rabbit anti-GST and secondary horseradish peroxidase antibodies by a procedure identical to immunoblotting (IB), (see Stefan et al., J. Am. Soc. Nephrol. 18, 199-212 (2007)). […]

T1 sequence (P08753 whole entry, the tested form may be a part): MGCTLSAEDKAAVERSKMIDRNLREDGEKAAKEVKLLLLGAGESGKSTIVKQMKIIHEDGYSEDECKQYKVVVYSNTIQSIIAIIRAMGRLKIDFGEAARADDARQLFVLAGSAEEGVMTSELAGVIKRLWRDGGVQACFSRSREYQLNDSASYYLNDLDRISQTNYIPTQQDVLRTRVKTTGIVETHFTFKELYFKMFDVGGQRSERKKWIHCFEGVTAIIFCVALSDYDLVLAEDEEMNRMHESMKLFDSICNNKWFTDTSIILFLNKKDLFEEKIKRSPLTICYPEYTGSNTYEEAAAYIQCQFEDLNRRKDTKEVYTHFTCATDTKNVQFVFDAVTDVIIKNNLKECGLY

QGASADSFFIVESGE (listed as Homo sapiens) [SEQ ID No. 8]
binding of spotted peptide to recombinant GST-Gαi3 (dot blot): functional
